Experimental data published in US20220362357A1, “Synergistic Combinations of Amino Acid Depletion Agent Sensitizers (AADAS) and Amino Acid Depletion Agents (AADA), and Therapeutic Methods of Use Thereof” (STICHTING RADBOUD UNIVERSITAIR MEDISCH CENTRUM, priority 2018, published 2022).

Assays:
Assay in all cases: PDX ALL cells co-cultured on hTERT MSCs, ASNase x ibrutinib dilution matrix, microscopy
Type in all cases: cell-based, human
PDX m3810 = settings: ibrutinib B0=0 to B9=100
Description: (§1) After 2-4 months these mice developed full blown leukemia with an immunophenotype and genetic composition that in the large majority of cases is identical to the original material at the time of injection.
(§2) Briefly, hTERT immortalized MSCs were seeded in either a 384 wells format (microscopy) or a 96 wells format (7AAD staining) and allowed to settle for 24 hours prior to the addition of ALL xenografts. […] After 3 and 7 days of incubation, cell death was analyzed using microscopy using live cells staining or flowcytometry using 7AAD to discriminate between live or dead cells.

PDX m1600 = settings: m1600 (3 d), ibrutinib B0=0 to B9=100
Description: as §1, §2

PDX m4206 = settings: ibrutinib B0=0 to B9=100
Description: as §1, §2

PDX m877 = settings: m877 (3 d), ibrutinib B0=0 to B9=100
Description: as §1, §2

PDX m838 = settings: m838 (3 d), ibrutinib B0=0 to B9=100
Description: as §1, §2

B1: ASNase: native E. coli ASNase (NCBI WP_000394140.1), used in the in vitro studies (protein, UniProt P00805 23-348, looked up)
L-asparaginase 2: LPNITILATGGTIAGGGDSATKSNYTVGKVGVENLVNAVPQLKDIANVKGEQVVNIGSQDMNDNVWLTLAKKINTDCDKTDGFVITHGTDTMEETAYFLDLTVKCDKPVVMVGAMRPSTSMSADGPFNLYNAVVTAADKASANRGVLVVMNDTVLDGRDVTKTNTTDVATFKSVNYGPLGYIHNGKIDYQRTPARKHTSDTPFDVSKLNELPKVGIVYNYANASDLPAKALVDAGYDGIVSAGVGNGNLYKSVFDTLATAAKTGTAVVRSSRVPTGATTQDAEVDDAKYGFVASGTLNPQKARVLLQLALTQTKDPQQIQQIFNQY
What does the source list for B1?
live cells by automated microscopy (table names no quantity) (PDX m3810; m3810 (3 d), ASNase A5=1): 1472; live cells by automated microscopy (table names no quantity) (PDX m3810; m3810 (3 d), ASNase A6=3): 1497; live cells by automated microscopy (table names no quantity) (PDX m3810; m3810 (3 d), ASNase A7=10): 1054; live cells by automated microscopy (table names no quantity) (PDX m3810; m3810 (3 d), ASNase A8=32): 268; live cells by automated microscopy (table names no quantity) (PDX m3810; m3810 (3 d), ASNase A9 (A=100)): 8; live cells by automated microscopy (table names no quantity) (PDX m3810; m3810 (7 d), ASNase A1=0.01): 1776; live cells by automated microscopy (table names no quantity) (PDX m3810; m3810 (7 d), ASNase A2=0.03): 1752; live cells by automated microscopy (table names no quantity) (PDX m3810; m3810 (7 d), ASNase A3=0.1): 1563; live cells by automated microscopy (table names no quantity) (PDX m3810; m3810 (7 d), ASNase A4=0.3): 1519; live cells by automated microscopy (table names no quantity) (PDX m3810; m3810 (7 d), ASNase A5=1): 1136; live cells by automated microscopy (table names no quantity) (PDX m3810; m3810 (7 d), ASNase A6=3): 1251; live cells by automated microscopy (table names no quantity) (PDX m3810; m3810 (7 d), ASNase A7=10): 686; live cells by automated microscopy (table names no quantity) (PDX m3810; m3810 (7 d), ASNase A8=32): 87; live cells by automated microscopy (table names no quantity) (PDX m3810; m3810 (7 d), ASNase A9 (A=100)): 4; live cells by automated microscopy (table names no quantity) (PDX m1600; ASNase A1=0.01): 4146; live cells by automated microscopy (table names no quantity) (PDX m1600; ASNase A2=0.03): 4603; live cells by automated microscopy (table names no quantity) (PDX m1600; ASNase A3=0.1): 3714; live cells by automated microscopy (table names no quantity) (PDX m1600; ASNase A4=0.3): 3134; live cells by automated microscopy (table names no quantity) (PDX m1600; ASNase A5=1): 4045; live cells by automated microscopy (table names no quantity) (PDX m1600; ASNase A6=3): 4366; live cells by automated microscopy (table names no quantity) (PDX m1600; ASNase A7=10): 3730; live cells by automated microscopy (table names no quantity) (PDX m1600; ASNase A8=32): 487; live cells by automated microscopy (table names no quantity) (PDX m1600; ASNase A9 (A=100)): 4; live cells by automated microscopy (table names no quantity) (PDX m4206; m4206 (3 d), ASNase A1=0.01): 3112; live cells by automated microscopy (table names no quantity) (PDX m4206; m4206 (3 d), ASNase A2=0.03): 2484; live cells by automated microscopy (table names no quantity) (PDX m4206; m4206 (3 d), ASNase A3=0.1): 3106; live cells by automated microscopy (table names no quantity) (PDX m4206; m4206 (3 d), ASNase A4=0.3): 2323; live cells by automated microscopy (table names no quantity) (PDX m4206; m4206 (3 d), ASNase A5=1): 2141; live cells by automated microscopy (table names no quantity) (PDX m4206; m4206 (3 d), ASNase A6=3): 2304; live cells by automated microscopy (table names no quantity) (PDX m4206; m4206 (3 d), ASNase A7=10): 1979; live cells by automated microscopy (table names no quantity) (PDX m4206; m4206 (3 d), ASNase A8=32): 301; live cells by automated microscopy (table names no quantity) (PDX m4206; m4206 (3 d), ASNase A9 (A=100)): 69; live cells by automated microscopy (table names no quantity) (PDX m4206; m4206 (7 d), ASNase A1=0.01): 56; live cells by automated microscopy (table names no quantity) (PDX m4206; m4206 (7 d), ASNase A2=0.03): 52; live cells by automated microscopy (table names no quantity) (PDX m4206; m4206 (7 d), ASNase A3=0.1): 86; live cells by automated microscopy (table names no quantity) (PDX m4206; m4206 (7 d), ASNase A4=0.3): 37; live cells by automated microscopy (table names no quantity) (PDX m4206; m4206 (7 d), ASNase A5=1): 83; live cells by automated microscopy (table names no quantity) (PDX m4206; m4206 (7 d), ASNase A6=3): 87; live cells by automated microscopy (table names no quantity) (PDX m4206; m4206 (7 d), ASNase A7=10): 68; live cells by automated microscopy (table names no quantity) (PDX m4206; m4206 (7 d), ASNase A8=32): 24; live cells by automated microscopy (table names no quantity) (PDX m4206; m4206 (7 d), ASNase A9 (A=100)): 35; live cells by automated microscopy (table names no quantity) (PDX m877; ASNase A1=0.01): 5090; live cells by automated microscopy (table names no quantity) (PDX m877; ASNase A2=0.03): 4877; live cells by automated microscopy (table names no quantity) (PDX m877; ASNase A3=0.1): 4455; live cells by automated microscopy (table names no quantity) (PDX m877; ASNase A4=0.3): 4789; live cells by automated microscopy (table names no quantity) (PDX m877; ASNase A5=1): 5008; live cells by automated microscopy (table names no quantity) (PDX m877; ASNase A6=3): 5125; live cells by automated microscopy (table names no quantity) (PDX m877; ASNase A7=10): 4350; live cells by automated microscopy (table names no quantity) (PDX m877; ASNase A8=32): 1205; live cells by automated microscopy (table names no quantity) (PDX m877; ASNase A9 (A=100)): 2; live cells by automated microscopy (table names no quantity) (PDX m838; ASNase A1=0.01): 2793; live cells by automated microscopy (table names no quantity) (PDX m838; ASNase A2=0.03): 3003; live cells by automated microscopy (table names no quantity) (PDX m838; ASNase A3=0.1): 3109; live cells by automated microscopy (table names no quantity) (PDX m838; ASNase A4=0.3): 2839; live cells by automated microscopy (table names no quantity) (PDX m838; ASNase A5=1): 2454; live cells by automated microscopy (table names no quantity) (PDX m838; ASNase A6=3): 3049; live cells by automated microscopy (table names no quantity) (PDX m838; ASNase A7=10): 2431; live cells by automated microscopy (table names no quantity) (PDX m838; ASNase A8=32): 175; live cells by automated microscopy (table names no quantity) (PDX m838; ASNase A9 (A=100)): 18
